Measurements published in publication PMC11237755.

How the values were obtained:
Conditions in all cases: LightShift Chemiluminescent EMSA kit (binding buffer, salt and pH not given), 20 min room temperature; 20 fmol probe, 6% 0.5x TBE gel (TtdV/TtdW); 50 fmol …
[1] = system: T1, His6-ArcA~P (Salmonella enterica serovar Typhimurium IR715 (ATCC14028 NalR)), ORF:c309dbee; test: EMSA
T1 sequence: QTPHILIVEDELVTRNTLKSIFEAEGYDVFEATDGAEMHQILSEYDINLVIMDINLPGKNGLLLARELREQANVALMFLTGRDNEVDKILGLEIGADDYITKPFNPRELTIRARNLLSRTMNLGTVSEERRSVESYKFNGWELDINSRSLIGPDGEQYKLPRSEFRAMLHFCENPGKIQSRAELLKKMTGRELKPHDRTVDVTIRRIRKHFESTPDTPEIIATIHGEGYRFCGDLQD

[2] = biological target: T2, TtdV-His6 (Salmonella enterica serovar Typhimurium IR715 (ATCC14028 NalR)) (UniProt Q8ZLP8); test: EMSA
T2 sequence: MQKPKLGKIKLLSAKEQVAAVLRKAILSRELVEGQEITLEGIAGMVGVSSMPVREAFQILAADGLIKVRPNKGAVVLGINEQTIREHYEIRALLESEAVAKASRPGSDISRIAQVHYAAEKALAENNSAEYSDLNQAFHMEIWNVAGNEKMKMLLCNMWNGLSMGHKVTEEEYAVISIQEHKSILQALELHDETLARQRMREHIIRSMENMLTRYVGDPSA

[3] = system: T3, His6-ArcA (unphosphorylated) (Salmonella enterica serovar Typhimurium IR715 (ATCC14028 NalR)), ORF:c309dbee; test: EMSA
T3 sequence: T1 sequence

[4] = biological target: T4, TtdW-His6 (Salmonella enterica serovar Typhimurium IR715 (ATCC14028 NalR)) (UniProt Q8ZLP7); test: EMSA
T4 sequence: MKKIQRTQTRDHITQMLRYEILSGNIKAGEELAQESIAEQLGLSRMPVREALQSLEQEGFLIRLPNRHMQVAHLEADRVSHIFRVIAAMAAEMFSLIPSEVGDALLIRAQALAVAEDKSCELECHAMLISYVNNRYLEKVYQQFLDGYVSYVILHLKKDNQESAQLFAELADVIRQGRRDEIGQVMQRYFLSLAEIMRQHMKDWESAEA

[5] = system: T1, His6-ArcA~P (Salmonella enterica serovar Typhimurium IR715 (ATCC14028 NalR)), ORF:c309dbee; test: competition
[6] = biological target: T4, TtdW-His6 (Salmonella enterica serovar Typhimurium IR715 (ATCC14028 NalR)); test: competition

Sequence | binding [1] | binding [2] | binding [3] | binding [4] | binding [5] | binding [6]
GCCTTCTTCGGTGACCTTATGGCCCATCGACAGGCCGTTCCACATATTACAGAGCAACATTTTCATTTTTTCGTTGCCAGCAACATTCCATATTTCCATATGAAATGCCTGATTCAGGTCGGAGTATTCCGCCGAGTTATTTTCCGCGAGAGCCTTTTCAGCGGCATAATGCACCTGGGCTATCCGCGAGATATCGGAGCCAGGACGAGAAGCTTTAGCCACCGCCTCACTTTCTAACAGCGCGCGAATTTCATAGTGTTCACGGATGG (double strand) [Probe 1] | binds | no binding | binds |  |  | 
CGTATGCTGACCCGCTATGTTGGTGACCCTTCTGCCTGATCTTTTCGCCTGCGTGAGCATCGCAGGCGCTTCAACCAATTCTTCAATTCTATTAATCACGTCCAGTAACGATCTAACCACGATCTTGATGTAGATCCCACTCCTGCATCTTTCCTGAGAAACGATTTGACTTAGTTTTTGTATGGGAATAATTTCTCCCTGTCAACATTGGATACAATATCATATATCATTGATTGGATAATTATAAATATGGAACCCATTACCCTTACCTTATGTTTATTGGTGTTCGCCC (double strand) [Probe 4] | binds |  | binds | binds |  | 
CGTATGCTGACCCGCTATGTTGGTGACCCTTCTGCCTGATCTTTTCGCCTGCGTGAGCATCGCAGGCGCTTCAACCAATTCTTCAATTCTATTAATCACGTCCAGTAACGATCTAACCACGATCTTGATGTAGATCCCACTCCTGCATCTTTCCTGAGAAACGATTTGACTTAGTTTTTGTATGGGAATAATTTCTCCCTGTCAACATTGGATACAATATCATATATCATTGATTGGATAATTATAAATATGGAACCCATTACCCTTACCTTATGTTTATTGGTGTTCGCCC (double strand) [Probe 4 unlabeled competitor] |  |  |  |  | binds | binds
ACCGAAGAAGAGTATGCCGTGATTTCCATTCAGGAACATAAAAGTATTCTGCAAGCTCTTGAACTTCATGATGAAACATTGGCACGCCAGCGCATGCGCGAACACATTATTCGCTCAATGGAGAATATGCTGACCCGCTATGTTGGTGACCCTTCTGCCTGATCTTTTCGCCTGCGTGAGCATCGCAGGCGCTTCAACCAATTCTTCAATTCTATTAATCACGTCCAGTAACGATCTAACCACGATCTTGATGTAGC (double strand) [Probe 3] | binds | no binding | binds |  |  | 
CCTAACTCGGCGGAATACTCCGACCTGAATCAGGCATTTCATATGGAAATATGGAATGTTGCTGGCAACGAAAAAATGAAAATGTTGCTCTGTAATATGTGGAACGGCCTGTCGATGGGCCATAAGGTCACCGAAGAAGAGTATGCCGTGATTTCCATTCAGGAACATAAAAGTATTCTGCAAGCTCTTGAACTTCATGATGAAACATTGGCACGCCAGCGCATGCGCGAACACATTATTCGCTCAATGGAGAATATGCTGACCCGCTATGTTG (double strand) [Probe 2] | binds | no binding | binds |  |  | 
